# According to patent US20080026996A1, “Selective Vpac2 Receptor Reptide Agonists” (ELI LILLY AND COMPANY, priority 2004, published 2008):
# Changes are numbered by the printed parent chain. Like-named read-outs stand apart in the source and are kept apart here. Where no end group is shown, it is not given here. [ ]: non-standard residue; d: D form. hArg = N=C(N)NCCCC[C@H](N)C(=O)O
# T1: human VPAC2 receptor (human, UniProt P41587 24-438)
# T1 sequence (looked up): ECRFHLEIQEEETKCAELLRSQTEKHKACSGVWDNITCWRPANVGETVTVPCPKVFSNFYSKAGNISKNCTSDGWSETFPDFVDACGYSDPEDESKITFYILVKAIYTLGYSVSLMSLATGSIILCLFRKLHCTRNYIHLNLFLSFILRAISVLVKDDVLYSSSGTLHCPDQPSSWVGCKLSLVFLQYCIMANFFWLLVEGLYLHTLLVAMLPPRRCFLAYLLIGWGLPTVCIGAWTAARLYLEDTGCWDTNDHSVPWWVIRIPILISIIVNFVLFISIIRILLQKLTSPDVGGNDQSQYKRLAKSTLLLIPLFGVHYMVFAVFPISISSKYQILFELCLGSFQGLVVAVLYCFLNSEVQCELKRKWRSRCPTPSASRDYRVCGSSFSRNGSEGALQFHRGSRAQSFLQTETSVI
# T2: human VPAC1 receptor (human, UniProt P32241 31-457)
# T2 sequence (looked up): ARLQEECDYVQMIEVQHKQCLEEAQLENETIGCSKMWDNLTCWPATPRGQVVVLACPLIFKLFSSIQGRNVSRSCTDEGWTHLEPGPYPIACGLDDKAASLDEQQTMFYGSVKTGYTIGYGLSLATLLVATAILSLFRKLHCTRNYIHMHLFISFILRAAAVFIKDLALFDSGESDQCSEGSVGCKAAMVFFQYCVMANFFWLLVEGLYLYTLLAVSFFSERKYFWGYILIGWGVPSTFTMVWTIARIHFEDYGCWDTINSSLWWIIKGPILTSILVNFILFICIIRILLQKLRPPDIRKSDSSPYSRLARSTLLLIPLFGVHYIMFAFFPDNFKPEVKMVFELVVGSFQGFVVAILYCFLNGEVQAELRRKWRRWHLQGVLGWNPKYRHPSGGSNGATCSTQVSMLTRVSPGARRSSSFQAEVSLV
# T3: human PAC1 receptor (human, UniProt P41586 21-468)
# T3 sequence (looked up): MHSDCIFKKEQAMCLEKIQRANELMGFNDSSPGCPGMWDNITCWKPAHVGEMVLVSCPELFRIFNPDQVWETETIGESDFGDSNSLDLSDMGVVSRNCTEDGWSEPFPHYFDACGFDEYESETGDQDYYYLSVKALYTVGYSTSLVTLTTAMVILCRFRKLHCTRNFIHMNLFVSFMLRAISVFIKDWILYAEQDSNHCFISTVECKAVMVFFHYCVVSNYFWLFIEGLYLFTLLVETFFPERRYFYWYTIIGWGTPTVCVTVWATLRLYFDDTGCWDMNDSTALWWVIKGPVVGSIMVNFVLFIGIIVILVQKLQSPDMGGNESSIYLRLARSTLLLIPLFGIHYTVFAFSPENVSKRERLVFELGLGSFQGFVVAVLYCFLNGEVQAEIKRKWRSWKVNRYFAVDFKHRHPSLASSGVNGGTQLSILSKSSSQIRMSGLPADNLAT
# B1: P34 (peptide)
# peptide: HSDAVFTDNYTRLRKQVAAKKYLQSIKNKRF
# B2: P33 (peptide)
# peptide: Ac-HSDAVFTDNYTRLRKQVAAKKYLQSIKNKRYGGPSSGAPPPS
# B3: P20 (peptide)
# peptide: HSDAVFTDNYTRLRKQVAARKYLQSIKNKRYGGPSSGAPPPS
# B4: P26 (peptide)
# peptide: B3 peptide with L13F, R20K
# B5: P51 (peptide)
# peptide: B3 peptide with A4Y, R20K
# B6: P46 (peptide)
# peptide: B3 peptide with S2L, R20K
# B7: P56 (peptide)
# peptide: B3 peptide with A4W, R20K
# B8: P52 (peptide)
# peptide: B3 peptide with A4F, R20K
# B9: P45 (peptide)
# peptide: B3 peptide with S2T, R20K
# B10: P27 (peptide)
# peptide: B3 peptide with Y10W, R20K
# B11: P6 (peptide)
# peptide: B3 peptide with R20K
# B12: P55 (peptide)
# peptide: B3 peptide with A4L, R20K
# modifications: not fully specified
# B13: P49 (peptide)
# peptide: B3 peptide with S2P, R20K
# B14: P28 (peptide)
# peptide: B3 peptide with R20K, Y31H
# B15: P61 (peptide)
# peptide: B3 peptide with V5L, R20K
# modifications: not fully specified
# B16: P43 (peptide)
# peptide: B3 peptide with S2G, R20K
# B17: P54 (peptide)
# peptide: B3 peptide with A4T, R20K
# B18: P50 (peptide)
# peptide: B3 peptide with A4I, R20K
# modifications: not fully specified
# B19: P58 (peptide)
# peptide: B3 peptide with V5F, R20K
# B20: P44 (peptide)
# peptide: B3 peptide with S2V, R20K
# modifications: not fully specified
# B21: P53 (peptide)
# peptide: B3 peptide with A4V, R20K
# B22: P71 (peptide)
# peptide: B3 peptide with K15R, K21R, K27R, K29R
# modifications: not fully specified
# B23: P21 (peptide)
# peptide: B3 peptide with R20S
# B24: P72 (peptide)
# peptide: B3 peptide with K15R, R20K
# B25: P47 (peptide)
# peptide: H[dA]DAVFTDNYTRLRKQVAAKKYLQSIKNKRYGGPSSGAPPPS
# B26: P25 (peptide)
# peptide: B3 peptide with R20K, K29R
# B27: P23 (peptide)
# peptide: B3 peptide with R20K, K27R
# B28: P18 (peptide)
# peptide: HSDAVFTDNYTRLRKQVAA[hArg]KYLQSIKNKRYGGPSSGAPPPS
# modifications: ends and bridges not checked
# B29: P37 (peptide)
# peptide: HSDAVFTDNYTRLRKQVAAKKYLQSIKNKRYC
# B30: P48 (peptide)
# peptide: H[dS]DAVFTDNYTRLRKQVAAKKYLQSIKNKRYGGPSSGAPPPS
# B31: P22 (peptide)
# peptide: HSDAVFTDNYTRLRKQVAAKKYLQSI[hArg]NKRYGGPSSGAPPPS
# modifications: ends and bridges not checked
# B32: P24 (peptide)
# peptide: HSDAVFTDNYTRLRKQVAAKKYLQSIKN[hArg]RYGGPSSGAPPPS
# modifications: ends and bridges not checked
# Legend:
# Experiment in all cases: cell-based or functional assay
# [1] = target: T1, human VPAC2 receptor
# [2] = target: T2, human VPAC1 receptor
# [3] = target: T3, human PAC1 receptor
Binder,"EC50 cAMP, Alpha Screen [1] [nM]","EC50 cAMP, DiscoveRx [1] [nM]","EC50 cAMP, DiscoveRx [2] [nM]","EC50 cAMP, DiscoveRx [3] [nM]","EC50 cAMP, DiscoveRx ([3]; record 2) [nM]"
B1,2.44,2.28,0.8,80.5,
B2,0.73,0.86,4.7,112,
B3,2.77,2.13,2,> 25,
B4,,4.81,0.9,84,
B5,,91.1,3.61,> 1000,
B6,,121,57.5,> 1000,
B7,,109,9.96,405,
B8,,140,37.5,> 1000,
B9,,11.6,1.75,316,
B10,,27.6,5.2,> 100,
B11,3.19,2.56,5,> 40,
B12,,15.3,134,> 1000,
B13,,13.4,22.8,44.2,
B14,,3.92,2.6,53.6,
B15,,2.14,2.58,11.6,
B16,,5.37,75.6,104,

Binder,"EC50 cAMP, Alpha Screen [1] [nM]","EC50 cAMP, DiscoveRx [1] [nM]","EC50 cAMP, DiscoveRx [2] [nM]","EC50 cAMP, DiscoveRx [3] [nM]","EC50 cAMP, DiscoveRx ([3]; record 2) [nM]"
B17,,32.8,84.1,> 1000,
B18,,19.2,111,,
B19,,11.8,44.1,35.6,
B20,,0.92,5.5,36.6,
B21,,50.5,118,> 1000,
B22,,3.14,0.2,14.6,
B23,11.6,6.87,10.7,> 100,
B24,,1.79,0.3,35.3,
B25,1.39,1.07,3.6,136,
B26,,3.02,2.7,137,
B27,2.3,1.41,0.9,98.3,
B28,,,0.4,> 50,435
B29,,1.68,6.4,35.6,
B30,,9.55,9.93,95.9,
B31,2.23,1.18,0.9,73.5,
B32,,5.78,2.5,> 100,
